Here are results for nine molecules from patent publication US20110236969A1.

Experiment [1] concerns the target GST-fused human V158 FcγRIIIa (extracellular region) (human) (UniProt P08637). Description: AlphaScreen competition with biotin-WT AC10. In general terms: Bead proximity is the source of the signal in Alpha formats.
Experiment [2] shares this target. Kind of experiment: SPR, GST-FcγRIIIa V158 on chip. (Surface plasmon resonance follows binding to a sensor surface in real time, without labels.)
The target in experiment [3] is CD30 fused to the Fc region of IgG1 (R&D Systems) (UniProt P28908). Kind of experiment: SPR, CD30-Fc on Protein A chip.
The target of experiment [4] is T1, human CD30 (commercial), conjugated to digoxigenin (human) (UniProt P28908).
T1 sequence (conjugated to digoxigenin (DIG), looked up): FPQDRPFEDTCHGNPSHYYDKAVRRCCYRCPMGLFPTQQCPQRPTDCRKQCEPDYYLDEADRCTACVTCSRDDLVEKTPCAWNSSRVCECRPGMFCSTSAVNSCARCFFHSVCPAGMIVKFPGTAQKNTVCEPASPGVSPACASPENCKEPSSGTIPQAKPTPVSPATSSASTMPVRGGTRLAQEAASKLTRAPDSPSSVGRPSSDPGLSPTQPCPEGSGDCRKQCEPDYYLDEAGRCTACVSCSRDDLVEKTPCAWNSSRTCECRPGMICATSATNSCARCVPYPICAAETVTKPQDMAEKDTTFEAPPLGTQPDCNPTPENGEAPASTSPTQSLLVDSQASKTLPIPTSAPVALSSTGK
Description: AlphaScreen competition with biotin-WT AC10.

What is called IC50 is the midpoint of a concentration-inhibition curve. A high value points to a need for much substance. Usually Kd stands for the concentration at which binding is half-saturated. Higher therefore signals weaker binding.

Sequence of GST-fused human V158 FcγRIIIa (extracellular region) (human) (P08637 17-208 F176V): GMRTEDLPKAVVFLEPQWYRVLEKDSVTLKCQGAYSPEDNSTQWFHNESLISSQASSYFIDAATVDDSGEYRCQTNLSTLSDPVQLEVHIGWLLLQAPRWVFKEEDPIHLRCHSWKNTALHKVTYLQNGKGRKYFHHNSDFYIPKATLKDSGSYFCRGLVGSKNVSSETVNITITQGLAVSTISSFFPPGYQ

Take “WT AC10 antibody H0L0 (H0 AC10 VH, L0 AC10 VL)”: the IC50 in experiment [1] turned out to be 87.2 nM. This molecule also came in with a Kd in experiment [2] of 18.6 nM.

B1: AC10 H2L3 (H2 AC10 VH, L3 AC10 VL) (antibody, from a related filing, IgG1, V domains shown)
VH: QIQLVESGGGLVKPGGSLRLSCAASGYTFTDYYITWVRQAPGQGLEWMGWIYPGSGNTKYNEKFQGRVTMTVDTSTSTAYMELSSLRSEDTAVYFCANYGNYWFAYWGQGTLVTVSS
VL: DIVLTQSPDSLAVSLGERATINCKASQSVDFDGDSYMNWYQQKPGQPPKVLIYAASNLESGIPARFSGSGSGTDFTLTINSLEAEDAATYYCQQSNEDPWTFGGGTKVEIK
On to B1, for which, in experiment [3], the Fold KD relative to WT came out at 0.5 fold and the equilibrium dissociation constant (Kd) was 6.75 nM. In experiment [4], the Fold IC50 relative to WT is 0.12 fold and the IC50 amounted to 27.2 nM. Besides, in experiment [1], the Fold IC50 relative to WT was 0.48 fold and the half-inhibitory concentration (IC50) turned out to be 183 nM. Further, in experiment [2], the Fold KD relative to WT was found to be 5.28 fold and the Kd was determined as 3.52 nM.

B2: AC10 H1L2 (H1 AC10 VH, L2 AC10 VL) (antibody, from a related filing, IgG1, V domains shown)
VH: QIQLVQSGPEVKKPGASVKVSCKASGYTFTDYYITWVRQAPGQGLEWMGWIYPGSGNTKYNEKFQGRVTITVDTSASTAYMELSSLRSEDTAVYFCANYGNYWFAYWGQGTLVTVSS
VL: DIVLTQSPSSLSASVGDRVTITCRASQSVDFDGDSYMNWYQQKPGQPPKVLIYAASNLESGIPARFSGSGSGTDFTLTISSLQPEDFATYYCQQSNEDPWTFGGGTKVEIK
For B2, the Fold KD relative to WT in experiment [3] was determined as 0.45 fold; in experiment [2], 1.12 fold. For the same molecule, the Kd in experiment [3] came to 7.55 nM; in experiment [2], 16.6 nM. The Fold IC50 relative to WT was determined as 0.07 fold in experiment [4] and 0.26 fold in experiment [1]. The values for the IC50 in experiment [4] and in experiment [1] were 45.3 nM and 340 nM, respectively.

B3: AC10 H2L1 (H2 AC10 VH, L1 AC10 VL) (antibody, from a related filing, IgG1, V domains shown)
VH: QIQLVESGGGLVKPGGSLRLSCAASGYTFTDYYITWVRQAPGQGLEWMGWIYPGSGNTKYNEKFQGRVTMTVDTSTSTAYMELSSLRSEDTAVYFCANYGNYWFAYWGQGTLVTVSS
VL: DIVLTQSPATLSLSPGERATLSCRASQSVDFDGDSYMNWYQQKPGQPPKVLIYAASNLESGIPARFSGSGSGTDFTLTISSLQPEDFATYYCQQSNEDPWTFGGGTKVEIK
In experiment [3], B3 returned a Fold KD relative to WT of 0.36 fold and a Kd of 9.49 nM. Moreover, in experiment [4], the Fold IC50 relative to WT was 0.06 fold and the IC50 turned out to be 55.1 nM. In experiment [1], this molecule came in with a Fold IC50 relative to WT of 0.12 fold and an IC50 of 751 nM. In experiment [2], this molecule displayed a Fold KD relative to WT of 1.25 fold and a Kd of 14.9 nM.

B4: AC10 H2L2 (H2 AC10 VH, L2 AC10 VL) (antibody, from a related filing, IgG1, V domains shown)
VH: QIQLVESGGGLVKPGGSLRLSCAASGYTFTDYYITWVRQAPGQGLEWMGWIYPGSGNTKYNEKFQGRVTMTVDTSTSTAYMELSSLRSEDTAVYFCANYGNYWFAYWGQGTLVTVSS
VL: DIVLTQSPSSLSASVGDRVTITCRASQSVDFDGDSYMNWYQQKPGQPPKVLIYAASNLESGIPARFSGSGSGTDFTLTISSLQPEDFATYYCQQSNEDPWTFGGGTKVEIK
Take B4: the Kd in experiment [3] came out at 5.95 nM; in experiment [2] it was 4.01 nM. The IC50 in experiment [4] turned out to be 49.2 nM.

B5: AC10 H1L3 (H1 AC10 VH, L3 AC10 VL) (antibody, from a related filing, IgG1, V domains shown)
VH: QIQLVQSGPEVKKPGASVKVSCKASGYTFTDYYITWVRQAPGQGLEWMGWIYPGSGNTKYNEKFQGRVTITVDTSASTAYMELSSLRSEDTAVYFCANYGNYWFAYWGQGTLVTVSS
VL: DIVLTQSPDSLAVSLGERATINCKASQSVDFDGDSYMNWYQQKPGQPPKVLIYAASNLESGIPARFSGSGSGTDFTLTINSLEAEDAATYYCQQSNEDPWTFGGGTKVEIK
Turning to B5, the Fold KD relative to WT stood at 0.67 fold in experiment [3] and 1.66 fold in experiment [2]. For the same molecule, the Kd in experiment [3] came out at 5.09 nM; in experiment [2] it was 11.2 nM. In addition, the Fold IC50 relative to WT in experiment [4] was 0.18 fold; in experiment [1], 0.49 fold. The IC50 in experiment [4] stood at 17.4 nM; in experiment [1], 178 nM.

B6: AC10 H1L1 (H1 AC10 VH, L1 AC10 VL) (antibody, from a related filing, IgG1, V domains shown)
VH: QIQLVQSGPEVKKPGASVKVSCKASGYTFTDYYITWVRQAPGQGLEWMGWIYPGSGNTKYNEKFQGRVTITVDTSASTAYMELSSLRSEDTAVYFCANYGNYWFAYWGQGTLVTVSS
VL: DIVLTQSPATLSLSPGERATLSCRASQSVDFDGDSYMNWYQQKPGQPPKVLIYAASNLESGIPARFSGSGSGTDFTLTISSLQPEDFATYYCQQSNEDPWTFGGGTKVEIK
In experiment [3], B6 showed a Fold KD relative to WT of 0.6 fold and a Kd of 5.63 nM. In experiment [4], the Fold IC50 relative to WT amounted to 0.11 fold and the IC50 worked out at 27.7 nM. In experiment [1], this molecule came in with a Fold IC50 relative to WT of 0.39 fold and an IC50 of 221 nM. In experiment [2], this molecule returned a Fold KD relative to WT of 1.66 fold and a Kd of 11.2 nM.

B7: AC10 H3L1 (H3 AC10 VH, L1 AC10 VL) (antibody, from a related filing, IgG1, V domains shown)
VH: QIQLVQSGPEVKKPGASVKVSCKASGYTFTDYYITWVRQAPGQGLEWMGWIYPGSGNTKYNEKFQGRFVFSVDTSASTAYLQISSLKAEDTAVYFCANYGNYWFAYWGQGTLVTVSS
VL: DIVLTQSPATLSLSPGERATLSCRASQSVDFDGDSYMNWYQQKPGQPPKVLIYAASNLESGIPARFSGSGSGTDFTLTISSLQPEDFATYYCQQSNEDPWTFGGGTKVEIK
B7 showed a Fold KD relative to WT in experiment [3] of 1.39 fold. The Kd in experiment [3] was determined as 2.44 nM; in experiment [2] it was 17.4 nM. Besides, the IC50 was determined as 6.09 nM in experiment [4] and 209 nM in experiment [1].

B8: AC10 H3L3 (H3 AC10 VH, L3 AC10 VL) (antibody, from a related filing, IgG1, V domains shown)
VH: QIQLVQSGPEVKKPGASVKVSCKASGYTFTDYYITWVRQAPGQGLEWMGWIYPGSGNTKYNEKFQGRFVFSVDTSASTAYLQISSLKAEDTAVYFCANYGNYWFAYWGQGTLVTVSS
VL: DIVLTQSPDSLAVSLGERATINCKASQSVDFDGDSYMNWYQQKPGQPPKVLIYAASNLESGIPARFSGSGSGTDFTLTINSLEAEDAATYYCQQSNEDPWTFGGGTKVEIK
Turning to B8, the Fold KD relative to WT in experiment [3] came to 1.45 fold; in experiment [2], 3.03 fold. In addition, the figures for the Kd in experiment [3] and in experiment [2] were 2.33 nM and 6.13 nM, respectively. In addition, the Fold IC50 relative to WT turned out to be 1.59 fold in experiment [4] and 1.04 fold in experiment [1]. The 50% inhibitory concentration (IC50) amounted to 1.99 nM in experiment [4] and 83.5 nM in experiment [1].
